Laboratory results from patent publication US20090081760A1, “DMO METHODS AND COMPOSITIONS” (priority 2007, published 2009).
Positions count from the first letter of the chain named. Numbers in names are those of the source.

Experiments:
Dicamba = assay: LC-MS/MS screen for oxygenase (DMO) activity: E. coli liquid culture expressing ddmC or a variant, grown with dicamba, DCSA detected in supernatant; assay type: cell-based
Procedure: An LC-MS/MS screen for oxygenase activity was used to detect DCSA. The method comprises a two stage process made up of a liquid cell culture assay coupled to an LC-MS/MS detection screen. In the liquid cell culture stage, the gene of interest, i.e. ddmC or a variant thereof, was cloned under the control of a promoter (e.g. T7 promoter, pET vector) and transformed into an E. coli host cell. […] Cells were spun down, and the supernatant was filtered and diluted tenfold with the inclusion of 8 μM salicylic acid as an internal standard. Samples of the supernatant, and/or optionally the cell pellet (or lysate thereof), from this first stage were analyzed for DCSA levels (i.e. DMO activity level) by LC-MS/MS.
While many oxygenases such as DMO are multi component systems requiring other helper enzymes for activity, it was observed that components in E. coli may substitute for these helper enzymes or functions. Thus, transformation of E. coli with a single “oxygenase” gene from a multi component system nevertheless results in measurable activity for the gene alone, even without other components being co-transformed into the same E. coli cell. Activity is observed because, in E. coli cells, surrogates with homology to the original helper enzymes (e.g. ferredoxin and reductase) may be utilized. Additionally, E. coli can take up substrate (e.g. dicamba) and excrete the product (e.g. DCSA) into the media supernatant, allowing for the speed and simplicity of this cell based screen. No lysis of cells is required. Alternatively, an HPLC-based assay for DMO activity may be utilized. Promising variants were used as templates for additional rounds DOT and or other mutagenesis methods in an iterative manner. […]
Sets of saturation mutagenesis primers (using NNS degenerate triplets) for 31 residues at the active site and involved in the electron transfer chain as indicated in Table 28 were designed and used to introduce mutations into the ddmC gene by means of terminated PCR on the template (ddmC gene with His tag and two changes, T2S+I123L (SEQ ID NO:23) in pMV4 vector (Modular Genetics, Cambridge, Mass.). Resulting PCR products were treated with DpnI to remove the parental template molecules, self-annealed and transformed into chemically competent E. coli Top10 F′ (Invitrogen, Carlsbad, Calif.). Standard DNA cloning methods were utilized (e.g. Sambrook et al., 1989). The individual colonies were grown in liquid culture. DNA was isolated by a standard miniprep procedure and used to transform the chemically competent E. coli (e.g. BL21(DE3)). […] Cells were spun down, and the supernatant was filtered and diluted tenfold with 8 μM salicylic acid as an internal standard. The DCSA levels (i.e. DMO activity level) were determined by LC-MS analysis as described above (e.g. Example 8).
Additional single substitution variants of DMO at residues corresponding to interaction (e.g. subunit interface) domains and the ferredoxin binding site were also prepared and assayed for their effect on enzymatic activity (See also Examples 8A, 8B) by the LC/MS screen. In most cases shown in Table 29, one conservative and one neutral substitution was tried at a given residue.
Table 30 lists DMO activity data (by LC/MS screen) for 58 variants relative to ddmC_M—6his (the wild type ddmC sequence with an N-terminal His tag (SEQ ID NO: 154), while Table 31 lists DMO activity data (by LC/MS screen) for 1685 variants relative to ddmC_RLE6his (the wild type ddmC sequence with T2S and I123L mutations (SEQ ID NO:23), and a C-terminal 6×His tag). The numbering of residues is based on the numbering found in SEQ ID NO:2 or SEQ ID NO:3.

[1] = biological target: the molecule itself; assay: X-ray crystal structure (homotrimer in the asymmetric unit)

B1: Control: control (wild type) DMO of the Table 29 LC/MS screen (protein, UniProt Q5S3I3 2-339, looked up)
Dicamba O-demethylase, …: TFVRNAWYVAALPEELSEKPLGRTILDTPLALYRQPDGVVAALLDICPHRFAPLSDGILVNGHLQCPYHGLEFDGGGQCVHNPHGNGARPASLNVRSFPVVERDALIWIWPGDPALADPGAIPDFGCRVDPAYRTVGGYGHVDCNYKLLVDNLMDLGHAQYVHRANAQTDAFDRLEREVIVGDGEIQALMKIPGGTPSVLMAKFLRGANTPVDAWNDIRWNKVSAMLNFIAVAPEGTPKEQSIHSRGTHILTPETEASCHYFFGSSRNFGIDDPEMDGVLRSWQAQALVKEDKVVVEAIERRRAYVEANGIRPAMLSCDEAAVRVSREIEKLEQLEAA
Control DCSA Produced (ppm) Set 1 average (±SD) (Dicamba; Set 1 average): 38.22 ± 7.81 ppm | Control DCSA Produced (ppm) Set 2 average (±SD) (Dicamba; Set 2 average): 26.59 ± 4.96 ppm | Control DCSA Produced (ppm) Set 3 average (±SD) (Dicamba; Set 3 average): 38.00 ± 6.87 ppm

B2: dicamba monooxygenase (DMO) (enzyme)
chain: MATFVRNAWYVAALPEELSEKPLGRTILDTPLALYRQPDGVVAALLDICPHRFAPLSDGILVNGHLQCPYHGLEFDGGGQCVHNPHGNGARPASLNVRSFPVVERDALIWIWPGDPALADPGAIPDFGCRVDPAYRTVGGYGHVDCNYKLLVDNLMDLGHAQYVHRANAQTDAFDRLEREVIVGDGEIQALMKIPGGTPSVLMAKFLRGANTPVDAWNDIRWNKVSAMLNFIAVAPEGTPKEQSIHSRGTHILTPETEASCHYFFGSSRNFGIDDPEMDGVLRSWQAQALVKEDKVVVEAIERRRAYVEANGIRPAMLSCDEAAVRVSREIEKLEQLEAARLEHHHHHH
notes: also called DMOw; DdmC
binding result [1]: binds

B3: R248L: DMO substitution variant (protein)
chain: B2 chain with W112C, R248L
Changed to: L % of control for set (Dicamba; residue changed to L, DCSA relative to control average of the data set): 153.00% | Changed to: L DCSA values (ppm) (Dicamba; residue changed to L, mean +/− SD (n)): 40.68 +/− 10.77 (4) ppm

B4: L282I: DMO substitution variant (protein)
chain: B2 chain with W112C, L282I
Changed to: I % of control for set (Dicamba; residue changed to I, DCSA relative to control average of the data set): 116.03% | Changed to: I DCSA values (ppm) (Dicamba; residue changed to I, mean +/− SD (n)): 44.35 +/− 1.22 (4) ppm

B5: R248K: DMO substitution variant (protein)
chain: B2 chain with W112C, R248K
Changed to: K % of control for set (Dicamba; residue changed to K, DCSA relative to control average of the data set): 155.15% | Changed to: K DCSA values (ppm) (Dicamba; residue changed to K, mean +/− SD (n)): 41.25 +/− 4.05 (4) ppm

B6: R248M: DMO substitution variant (protein)
chain: B2 chain with W112C, R248M
Changed to: M % of control for set (Dicamba; residue changed to M, DCSA relative to control average of the data set): 128.37% | Changed to: M DCSA values (ppm) (Dicamba; residue changed to M, mean +/− SD (n)): 34.13 +/− 3.09 (4) ppm
